According to WO2019080889A1 (dated 2019):

Key:
[1] = target: T1, cynomolgus monkey CSF-1R-His (cynomolgus monkey, UniProt A0A2K5WG90 20-512); assay: ELISA on cynomolgus CSF-1R-His
T1 construct: Bought protein; also called cynoCSF-1R-His; cynomolgus CSF-1R protein; not shown: His tag

[2] = target: T2, human CSF-1R protein (huCSF-1R), full length, expressed on CHO-S cells (human, UniProt P07333 20-972); assay: flow cytometry on CHO cells highly expressing CSF-1R
T2 construct: whole, on cells; Also used here as the target of the monocyte proliferation assays (native receptor on human monocytes); also called CSF-1R/CHO cells; CHO cells highly expressing CSF-1R

B1: anti-CSF-1R chimeric antibody C27C (antibody, V domains shown)
VH: EVQLQQSGAELVRPGALVKLSCKASGFNIKDYYMHWVKQRPEQGLEWIGRFDPENGDTIYDWKFQDKAIITSDTSSNTAYLHLSSLTSEDTAVYYCARSGDYMFDYWGQGTLVTVSA
VL: ETTVTQSPASLSMAIGEKVTIRCITSTGVDDDFNWYQQRPGEPPKLLISEGNTLRPGVPSRFSSSGYGTDFVFTIENMLSEDVADYFCLQSDHLPFTFGSGTKLEIK
[1]
  binding result: no binding

B2: anti-CSF-1R chimeric antibody C11C (antibody, V domains shown)
VH: EVQLQQSGPELVKPGASVKISCKASGYTFSNYYMNWVNQRHGERLEWIGEMNPNNGDSSYNQKFKGKATLTVDKSSSTAYMELRSLTSEDSAVYYCARRSPWWFFDVWGPGTTVIVSS
VL: DIVMTQSPSSLTVTAGEKVTMSCKSSQSLLNSGNQKNSLTWYQQKPGQPPKLLIYWASTRESGVPDRFTGSGSGTDFTLTISSVQTEDLAVYYCQNDYTYPFTFGTGTKLEIK
[2]
  binding result: binds

B3: humanized anti-CSF-1R antibody huC11 (antibody, human IgG1, kappa, V domains shown)
VH: EVQLVQSGAEVKKPGASVKVSCKASGYTFSNYYMNWVRQAPGQGLEWMGEMNPNTGDSSYNQKFKGRVTLTVDKSTSTAYMELSSLRSEDTAVYYCARRSPWWFFDVWGQGTMVTVSS
VL: DIVMTQSPDSLAVSLGERATINCKSSQSLLSSGNQKTSLTWYQQKPGQPPKLLIYWASTRESGVPDRFSGSGSGTDFTLTISSLQAEDVAVYYCQNDYTYPFTFGQGTKLEIKR
notes: Full-length chains; also called huC11 (VH-b heavy chain and VL-b light chain)
[2]
  binding result: binds

B4: humanized anti-CSF-1R antibody huC19 (antibody, human IgG1, kappa, V domains shown)
VH: QVQLVQSGAEVKKPGASVKVSCKASAITFTDYYMNWVKQAPGQGLEWIGDIYPNTGGTTYNQKFKGRVTLTVDTSISTAYMELSRLRSEDTAVYYCAREKITMEYYYAMDYWGQGTLVTVSS
VL: DIQLTQSPSSLSASVGDRVTITCRASESVSSHDIHLIHWYQQKPGKAPKLLIYAASSLESGVPSRFSGSGSGTDFTLTISSLQPEDFATYFCQQSIEDPPTFGGGTKVEIKR
notes: Full-length chains; also called huC19 (VH-c heavy chain and VL-a light chain)
[2]
  binding result: binds

B5: anti-CSF-1R chimeric antibody C19C (antibody, V domains shown)
VH: EVQLQQSGPELVKPGASVKISCTASAITFTDYYMNWVKQSPGKGLEWIGDIYPNNGGTTYNQKFKGKATLTVDKSSTTAYMELRSLTSEDSAVYYCAREKITMEYYYAMDYWGQGTSVTVSS
VL: DIVLTQSPASLAVSLGQRATISCRASESVSSHDIHLIHWYQQKPGQSPKLLIYAASSLESGVPARFSGSGSATDFTLNIHPVEEEDAATYFCQQSIEDPPTFGGGTKLEIK
[2]
  binding result: binds
